For assay [1], the target named is T1, Recombinant human Her2 Fc fusion protein (Sino Biological) (human, UniProt P04626 23-652).
T1 construct: not shown: Fc part of the bought fusion protein
Description: ForteBio Octet BLI; antigen-Fc on Protein A sensor, construct in solution. A general note: BLI is a label-free optical method that tracks binding on a fibre tip over time.

For assay [2], the target named is T2, Recombinant human PD-1 Fc fusion protein (Sino Biological) (human, UniProt Q15116 25-167).
T2 construct: not shown: Fc part of the bought fusion protein
T2 sequence (Q15116 25-167 limits assumed): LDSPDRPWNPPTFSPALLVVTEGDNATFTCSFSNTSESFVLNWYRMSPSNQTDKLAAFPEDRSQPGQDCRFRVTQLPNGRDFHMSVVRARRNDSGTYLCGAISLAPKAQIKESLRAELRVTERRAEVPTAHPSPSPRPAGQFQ
The assay is described as above.

In assay [3] the target is T3, Recombinant human CD137 Fc fusion protein (Sino Biological) (human, UniProt Q07011 24-186).
T3 construct: not shown: Fc part of the bought fusion protein
Description: ForteBio Octet BLI; antigen-Fc on Protein A sensor, 100 nM construct. As for the experimental part:
(§1) Antigen binding of MIAC constructs were analyzed using ForteBio Octet. […] All antigens were reconstituted in PBS at the final concentration of 0.25 ug/ul. […] Association proceeded by dipping sensors in 100 nM MIAC constructs for 5 minutes and disassociation occurred in blank kinetics buffer for 5 minutes. For CD3 epsilon binding, antigen was immobilized on Ni-NTA sensors; association was performed in 50 nM MIAC constructs. Binding data were analyzed using ForteBio Data Analysis 9.0 software.

For assay [4], the target named is T3, Recombinant human CD137 Fc fusion …. In words: ForteBio Octet BLI; antigen-Fc on Protein A sensor, construct in solution.
Assay [5] has as its target T2, Recombinant human PD-1 Fc fusion …. In words: ForteBio Octet BLI; antigen-Fc on Protein A sensor, 100 nM construct. The procedure:
as §1

B1: PID-90 (monospecific anti-CD137; Urelumab Fab domain, human IgG1 constant domain) (antibody, V domains shown)
VH: QVQLQQWGAGLLKPSETLSLTCAVYGGSFSGYYWSWIRQSPEKGLEWIGEINHGGYVTYNPSLESRVTISVDTSKNQFSLKLSSVTAADTAVYYCARDYGPGNYDWYFDLWGRGTLVTVSS
VL: EIVLTQSPATLSLSPGERATLSCRASQSVSSYLAWYQQKPGQAPRLLIYDASNRATGIPARFSGSGSGTDFTLTISSLEPEDFAVYYCQQRSNWPPALTFGGGTKVEIKR
notes: also called PID90 (CD137)
As for B1, the binding result in assay [1] and in assay [2] was “no binding (tested: 100 nM)” throughout. Moreover, in assay [3], the equilibrium dissociation constant (Kd) was determined as 0.7 nM.

B2: PID-2 (monospecific anti-PD-1; Pembrolizumab Fab domain, human IgG1 constant domain) (antibody, V domains shown)
VH: QVQLVQSGVEVKKPGASVKVSCKASGYTFTNYYMYWVRQAPGQGLEWMGGINPSNGGTNFNEKFKNRVTLTTDSSTTTAYMELKSLQFDDTAVYYCARRDYRFDMGFDYWGQGTTVTVSS
VL: EIVLTQSPATLSLSPGERATLSCRASKGVSTSGYSYLHWYQQKPGQAPRLLIYLASYLESGVPARFSGSGSGTDFTLTISSLEPEDFAVYYCQHSRDLPLTFGGGTKVEIKR
notes: also called PID2 (PD-1)
For the molecule B2, the binding result in assay [4] and in assay [1] was “no binding (tested: 100 nM)” in each case.

B3: PID-92 (bispecific Her2/CD137 MIAC; Urelumab IgG1 with Trastuzumab scFv at the heavy chain C-termini) (bispecific antibody)
heavy: not shown
light: not shown
notes: also called α-Her2/α-CD137 MIAC; PID92 [Her2/CD137]
Turning to B3, in assay [2], the binding result is listed as “no binding (tested: 100 nM)”. The Kd in assay [3] was 0.23 nM.

B4: PID-7 (bispecific Her2/PD-1 MIAC; Pembrolizumab IgG1 with Trastuzumab scFv at the heavy chain C-termini) (bispecific antibody)
heavy: not shown
light: EIVLTQSPATLSLSPGERATLSCRASKGVSTSGYSYLHWYQQKPGQAPRLLIYLASYLESGVPARFSGSGSGTDFTLTISSLEPEDFAVYYCQHSRDLPLTFGGGTKVEIKRTVAAPSVFIFPPSDEQLKSGTASVVCLLNNFYPREAKVQWKVDNALQSGNSQESVTEQDSKDSTYSLSSTLTLSKADYEKHKVYACEVTHQGLSSPVTKSFNRGEC
notes: also called α-Her2/α-PD-1
B4: in assay [4], the binding result is recorded as “no binding (tested: 100 nM)”. Moreover, in assay [5], the Kd amounted to 0.12 nM.

Usually Kd stands for a measure of binding affinity in units of concentration.

The values are drawn from US20180318417A1 (COMPASS THERAPEUTICS, published 2018).
